± gives the standard deviation of the averaged measurements.
Tested on: Saccharomyces cerevisiae
Assay: protein stability index of tFT-peptide fusion (C-terminal peptide) (PSI (0-1 scale)); higher = more stable (slower turnover)
Conditions: genetic background: wild type; temperature: 30 C
Experimental: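 MPS profiling in S. cerevisiae of the yeast C-terminome library: the last 12 aa of each annotated ORF are fused to the C-terminus of a sfGFP-mCherry timer, after a GGGS linker. Cells are FACS-sorted into 8 mCherry/sfGFP bins and deep-sequenced. PSI runs from 0 (unstable) to 1 (stable); wild type and das1Δ backgrounds, two technical replicates each.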

TNQASPHHIFRG [ORA1 C-terminal 12 aa] and TQEMENTKLAES [GIS1 C-terminal 12 aa] are within error of each other in protein stability index: 0.752 ± 0.038 for the first, 0.757 ± 0.0079 for the second.

First: TRSSGDDQVFVF [PGA3 C-terminal 12 aa]
Second: TSTITTTITMTL [SHE10 C-terminal 12 aa]
The protein stability index of the first is higher: 0.707 ± 0.012 for the first, 0.652 ± 0.042 for the second.

Going from TTDNVTVMVVFL [PTC1 C-terminal 12 aa] to TVFASNSFGVYV [OST5 C-terminal 12 aa], the protein stability index rises from 0.5071 ± 0.0035 to 0.709 ± 0.06.

Going from TVGTGLITRIIE [TUF1 C-terminal 12 aa] to TVHQLRDRGFDI [ENV9 C-terminal 12 aa], the protein stability index rises from 0.6945 ± 0.0066 to 0.717 ± 0.014.

Going from TVIALLVGWIYY [SCS22 C-terminal 12 aa] to TVSNETKEARET [SPT14 C-terminal 12 aa], the protein stability index rises from 0.255 ± 0.0075 to 0.6715 ± 0.0044.

Compared with TWFKYFKWLDMF [MRX3 C-terminal 12 aa], TYMLNGPAGLLM [YNL165W C-terminal 12 aa] is higher in protein stability index: 0.217 ± 0.0084 for the first, 0.684 ± 0.024 for the second.

TYSTLINIDVSL [NIC96 C-terminal 12 aa] and VAEKIPENETTH [ISW1 C-terminal 12 aa] are within error of each other in protein stability index: 0.688 ± 0.046 for the first, 0.679 ± 0.031 for the second.

Compared with VAPKPKTKQEKK [WRS1 C-terminal 12 aa], VDGFNDALQLSK [HEM14 C-terminal 12 aa] is higher in protein stability index: 0.658 ± 0.022 for the first, 0.708 ± 0.026 for the second.

VDMTSIFDFMLN [POL1 C-terminal 12 aa] and VDTILDEDFLLR [APC11 C-terminal 12 aa] are within error of each other in protein stability index: 0.709 ± 0.025 for the first, 0.712 ± 0.013 for the second.

Going from VEHRYHKSVSRL [YBR012C C-terminal 12 aa] to VENEDEPLFIER [INP51 C-terminal 12 aa], the protein stability index falls from 0.759 ± 0.053 to 0.683 ± 0.0088.

Going from VENTTVDFNYDM [YLR179C C-terminal 12 aa] to VFKSKCKKIYIG [DGR1 C-terminal 12 aa], the protein stability index falls from 0.681 ± 0.03 to 0.457 ± 0.04.

Going from VFNNISLNFYIQ [YLL020C C-terminal 12 aa] to VGFCGLYYYFRK [YPR195C C-terminal 12 aa], the protein stability index falls from 0.692 ± 0.0021 to 0.648 ± 0.015.

Compared with VIIKVFIRRSDA [YJL086C C-terminal 12 aa], VIPHRGKKPVQN [AUS1 C-terminal 12 aa] is higher in protein stability index: 0.461 ± 0.014 for the first, 0.681 ± 0.037 for the second.

Going from VKDIHGRIPEML [AXL2 C-terminal 12 aa] to VKEYYKKSDVGR [ATG9 C-terminal 12 aa], the protein stability index falls from 0.694 ± 0.015 to 0.66 ± 0.011.

Going from VKFVYRQRIALV [YLL037W C-terminal 12 aa] to VKSLQVKKSHLK [CDC12 C-terminal 12 aa], the protein stability index rises from 0.195 ± 0.0078 to 0.742 ± 0.13.

VLGFFKRRSMKI [FRK1 C-terminal 12 aa] and VLNFFKRRSMRV [KIN4 C-terminal 12 aa] are within error of each other in protein stability index: 0.678 ± 0.018 for the first, 0.634 ± 0.084 for the second.

VLSVISAVFGLI [PLB1 C-terminal 12 aa] and VLTAGVNSVAIK [RPN11 C-terminal 12 aa] are within error of each other in protein stability index: 0.672 ± 0.045 for the first, 0.63 ± 0.0097 for the second.

First: VLVCFQTFILLQ [YDL032W C-terminal 12 aa]
Second: VMLFSSNHQALG [MAG2 C-terminal 12 aa]
The protein stability index of the first is lower: 0.162 ± 0.0082 for the first, 0.693 ± 0.014 for the second.

VNFDIEEEQEGQ [JJJ3 C-terminal 12 aa] and VRKGQEKSKKHS [SEI1 C-terminal 12 aa] are within error of each other in protein stability index: 0.791 ± 0.071 for the first, 0.737 ± 0.06 for the second.

VRVPKKSKKLKK [PDR10 C-terminal 12 aa] and VSKELRSRDLLD [RPE1 C-terminal 12 aa] are within error of each other in protein stability index: 0.705 ± 0.012 for the first, 0.699 ± 0.0075 for the second.

First: VSNNLIIDEETF [BIM1 C-terminal 12 aa]
Second: VSSLRKHGEHYS [TRM82 C-terminal 12 aa]
The protein stability index of the first is higher: 0.7214 ± 0.0042 for the first, 0.6079 ± 0.0053 for the second.

VTSIMDMPISRE [MVP1 C-terminal 12 aa] and VTSKSALESIFP [YGP1 C-terminal 12 aa] are within error of each other in protein stability index: 0.684 ± 0.019 for the first, 0.678 ± 0.031 for the second.

Compared with VVLSYSMVGSVM [MAY24 C-terminal 12 aa], VVVCRLHFSLPV [YKL111C C-terminal 12 aa] is higher in protein stability index: 0.474 ± 0.026 for the first, 0.57 ± 0.012 for the second.

First: VVYYHMVCKNIT [YHR125W C-terminal 12 aa]
Second: VWNTFYKLGKRV [TMT1 C-terminal 12 aa]
The protein stability index of the first is lower: 0.573 ± 0.038 for the first, 0.6583 ± 0.0029 for the second.

Compared with VYDYQYIYKGKQ [SIA1 C-terminal 12 aa], VYTSKTRYRFAV [YHR210C C-terminal 12 aa] is lower in protein stability index: 0.698 ± 0.016 for the first, 0.578 ± 0.012 for the second.

WEHLHSGFSKNK [ELG1 C-terminal 12 aa] and WKKFLKFSKGSD [HXT17 C-terminal 12 aa] are within error of each other in protein stability index: 0.716 ± 0.019 for the first, 0.703 ± 0.099 for the second.

WKQGGGDFRTKK [RBA50 C-terminal 12 aa] and WLDCTTLPNYQG [KAP122 C-terminal 12 aa] are within error of each other in protein stability index: 0.667 ± 0.033 for the first, 0.707 ± 0.028 for the second.

WNLQTLAADDAF [RPB11 C-terminal 12 aa] and “WYNPSNQTYKSK [YLR222C-A C-terminal 12 aa]” are within error of each other in protein stability index: 0.729 ± 0.049 for the first, 0.727 ± 0.071 for the second.

YAVSELEGPMLD [CSC1 C-terminal 12 aa] and YCLFEKPTETTN [ALG9 C-terminal 12 aa] are within error of each other in protein stability index: 0.6479 ± 0.0011 for the first, 0.695 ± 0.061 for the second.

YDYNSKNSRGFY [DEF1 C-terminal 12 aa] and YFKETLYKLANE [HIS5 C-terminal 12 aa] are within error of each other in protein stability index: 0.676 ± 0.033 for the first, 0.705 ± 0.085 for the second.

First: YFLAERERINNH [PEX4 C-terminal 12 aa]
Second: YGCIALTVVFIL [YAR069C C-terminal 12 aa]
The protein stability index of the first is higher: 0.694 ± 0.01 for the first, 0.223 ± 0.0052 for the second.

YISKAGSYEVRY [APM4 C-terminal 12 aa] and YKASGSYLEKYF [YPK3 C-terminal 12 aa] are within error of each other in protein stability index: 0.666 ± 0.03 for the first, 0.6863 ± 0.00092 for the second.

Going from YKKVQWAKVLEQ [SFG1 C-terminal 12 aa] to YKLFKFLTRERS [BNA4 C-terminal 12 aa], the protein stability index falls from 0.7255 ± 0.0061 to 0.657 ± 0.018.

YKNKVGVGIPFI [STE14 C-terminal 12 aa] and YKQVSSHNSHSQ [CUP2 C-terminal 12 aa] are within error of each other in protein stability index: 0.7065 ± 0.0057 for the first, 0.691 ± 0.014 for the second.

Compared with YLEAFQWLSQYI [SAR1 C-terminal 12 aa], YLLGIYRDNKKC [ALG5 C-terminal 12 aa] is lower in protein stability index: 0.7631 ± 0.0025 for the first, 0.6693 ± 0.0016 for the second.

First: YNINHRKSVNSV [TDA9 C-terminal 12 aa]
Second: YNSELVATKDIQ [PNT1 C-terminal 12 aa]
The protein stability index of the first is lower: 0.6634 ± 0.0026 for the first, 0.7242 ± 0.0066 for the second.

Going from “YSELCIIVGTYY [YDR003W-A C-terminal 12 aa]” to YSLYRSRSKEAF [SAP190 C-terminal 12 aa], the protein stability index rises from 0.439 ± 0.036 to 0.692 ± 0.0071.

YVRFYRGKLNNP [YOL036W C-terminal 12 aa] and YWALGVALTGSK [YDR417C C-terminal 12 aa] are within error of each other in protein stability index: 0.7 ± 0.024 for the first, 0.693 ± 0.029 for the second.

First: YWRKQYPDADLP [YAR028W C-terminal 12 aa]
Second: YYNLKNCITSET [YHR050W-A C-terminal 12 aa]
The protein stability index of the first is higher: 0.695 ± 0.033 for the first, 0.6465 ± 0.0017 for the second.

From the supplement of paper PMC10724198
